The target of the experiment is αvβ3 integrin (human (endogenous in U87MG)) (UniProt P06756).
UniProt P06756, sequence (P06756 31-1048, chain 1 of 2): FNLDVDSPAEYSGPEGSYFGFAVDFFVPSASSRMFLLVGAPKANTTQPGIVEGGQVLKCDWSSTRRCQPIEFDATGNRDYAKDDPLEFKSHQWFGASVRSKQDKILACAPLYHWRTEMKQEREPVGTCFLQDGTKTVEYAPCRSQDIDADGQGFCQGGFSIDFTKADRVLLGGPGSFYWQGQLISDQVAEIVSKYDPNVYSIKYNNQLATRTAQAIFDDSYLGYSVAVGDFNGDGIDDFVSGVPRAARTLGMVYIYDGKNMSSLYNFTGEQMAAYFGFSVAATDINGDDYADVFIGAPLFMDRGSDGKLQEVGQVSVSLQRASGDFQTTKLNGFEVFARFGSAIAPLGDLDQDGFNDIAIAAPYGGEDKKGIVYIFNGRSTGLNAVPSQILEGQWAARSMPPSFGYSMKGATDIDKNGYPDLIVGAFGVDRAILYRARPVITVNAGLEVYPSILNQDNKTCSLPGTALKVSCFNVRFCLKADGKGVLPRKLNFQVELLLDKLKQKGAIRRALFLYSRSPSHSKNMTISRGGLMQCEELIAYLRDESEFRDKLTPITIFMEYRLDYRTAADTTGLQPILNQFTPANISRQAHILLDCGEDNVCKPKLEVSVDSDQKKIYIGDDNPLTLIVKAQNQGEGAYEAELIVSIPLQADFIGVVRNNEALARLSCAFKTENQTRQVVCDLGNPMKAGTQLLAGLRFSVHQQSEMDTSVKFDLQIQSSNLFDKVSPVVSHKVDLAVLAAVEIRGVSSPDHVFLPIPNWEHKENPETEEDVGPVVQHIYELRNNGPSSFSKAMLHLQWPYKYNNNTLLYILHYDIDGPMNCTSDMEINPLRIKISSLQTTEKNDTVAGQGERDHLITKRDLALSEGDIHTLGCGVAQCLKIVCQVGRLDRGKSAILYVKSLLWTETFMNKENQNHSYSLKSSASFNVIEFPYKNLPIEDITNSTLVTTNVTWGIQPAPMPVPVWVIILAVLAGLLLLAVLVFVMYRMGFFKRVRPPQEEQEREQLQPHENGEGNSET
UniProt P06756, sequence (P05106 27-788, chain 2 of 2, further chain): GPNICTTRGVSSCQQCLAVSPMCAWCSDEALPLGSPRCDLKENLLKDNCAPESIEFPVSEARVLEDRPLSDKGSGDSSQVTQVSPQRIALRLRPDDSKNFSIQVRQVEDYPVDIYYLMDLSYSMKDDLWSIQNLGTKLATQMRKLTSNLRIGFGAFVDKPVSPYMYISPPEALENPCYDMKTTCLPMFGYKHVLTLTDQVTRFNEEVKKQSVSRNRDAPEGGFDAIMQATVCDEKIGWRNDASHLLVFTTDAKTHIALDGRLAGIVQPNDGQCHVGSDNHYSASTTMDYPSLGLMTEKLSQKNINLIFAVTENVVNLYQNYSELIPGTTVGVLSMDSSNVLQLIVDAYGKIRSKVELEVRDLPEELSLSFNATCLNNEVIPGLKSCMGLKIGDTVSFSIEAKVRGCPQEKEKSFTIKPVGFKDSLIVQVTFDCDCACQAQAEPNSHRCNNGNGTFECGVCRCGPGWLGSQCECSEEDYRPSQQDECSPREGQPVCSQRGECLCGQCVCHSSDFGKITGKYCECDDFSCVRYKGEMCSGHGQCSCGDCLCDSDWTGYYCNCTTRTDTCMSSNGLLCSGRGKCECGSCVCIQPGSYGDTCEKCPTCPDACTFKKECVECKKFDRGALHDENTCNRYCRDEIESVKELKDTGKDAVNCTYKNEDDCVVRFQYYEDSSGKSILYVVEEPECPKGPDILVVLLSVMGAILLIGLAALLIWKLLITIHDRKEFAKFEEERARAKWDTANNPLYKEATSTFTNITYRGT

700DX-PEG-PGlu-cRGD15 (peptide) returned a cellular uptake in U87MG cells at 200 nM 700DX (fluorescence intensity after 7 h), fold over cells incubated with 700DX-PEG-cRGD of 2.5 times and a cellular uptake in U87MG cells at 200 nM 700DX (fluorescence intensity after 7 h), fold over cells incubated with free 700DX of 4.5 times.

(Values after paper PMC5970177.)
